Measured values reported in patent EP4678655A1.
“And” between values parts separate entries of the source, which are not always exact repeats. Equal entries are not always repeated.

Columns and labels:
[1] = biological target: T1, hTregL1-his tryptic peptide 498-531 (human); assay: affinity-MS: tryptic antigen peptides eluted from antibody-CNBr column, LC-MS
T1 sequence (peptide): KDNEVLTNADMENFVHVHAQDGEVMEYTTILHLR

[2] = biological target: T2, hTregL1-his tryptic peptide 499-531 (human); assay: as above
T2 sequence (peptide): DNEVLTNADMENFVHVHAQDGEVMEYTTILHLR

[3] = biological target: T3, hTregL1-his tryptic peptide 499-529 (human); assay: as above
T3 sequence (peptide): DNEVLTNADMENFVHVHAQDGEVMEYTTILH

[4] = biological target: T4, hTregL1-his chymotryptic peptide 447-471 (human); assay: affinity-MS: chymotryptic antigen peptides eluted from antibody-CNBr column, LC-MS
T4 sequence (peptide): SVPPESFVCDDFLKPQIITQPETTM

[5] = biological target: T5, hTregL1-his chymotryptic peptide 624-636 (human); assay: as above
T5 sequence (peptide): FITDVKIDDAGVY

[6] = biological target: T6, hTregL1-his chymotryptic peptide 536-553 (human); assay: as above
T6 sequence (peptide): GHEGRYQCVITNHFGSTY

[7] = biological target: T7, hTregL1-his chymotryptic peptide 430-446 (human); assay: as above
T7 sequence (peptide): VTATCAHPESLKGQSIF

[8] = biological target: T8, hTregL1-his chymotryptic peptide 529-535 (human); assay: as above
T8 sequence (peptide): HLRQVTF

[9] = biological target: T9, hTregL1-his chymotryptic peptide 585-598 (human); assay: as above
T9 sequence (peptide): ECAATGHPNPQIAW

[10] = biological target: T10, hTregL1-his chymotryptic peptide 472-492 (human); assay: as above
T10 sequence (peptide): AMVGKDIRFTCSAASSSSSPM

[11] = biological target: T11, hTregL1-his chymotryptic peptide 430-440 (human); assay: as above
T11 sequence (peptide): VTATCAHPESL

[12] = biological target: T12, hTregL1-his chymotryptic peptide 327-344 (human); assay: as above
T12 sequence (peptide): DLDHNEISGTIEDTSGAF

[13] = biological target: T13, hTregL1-his chymotryptic peptide 270-280 (human); assay: as above
T13 sequence (peptide): SFCQKLHELVL

[14] = biological target: T14, hTregL1-his chymotryptic peptide 637-653 (human); assay: as above
T14 sequence (peptide, N-glycan at 650(N)): SCTAQNSAGSISANATL

[15] = biological target: T15, hTregL1-his chymotryptic peptide 113-134 (human); assay: as above
T15 sequence (peptide, N-glycan at 116(N)): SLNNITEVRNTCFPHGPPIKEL

[16] = biological target: T16, hTregL1-his chymotryptic peptide 427-440 (human); assay: as above
T16 sequence (peptide): QAFVTATCAHPESL

[17] = biological target: T17, hTregL1-his chymotryptic peptide 728-744 (human); assay: as above
T17 sequence (peptide): TCEMSNTLGTERAHSQL

[18] = biological target: T18, hTregL1-his chymotryptic peptide 402-416 (human); assay: as above
T18 sequence (peptide): HISSDSFLCDCQLKW

MS Area [1]: 7.66e+06 and 4.64e+06 and 4.1e+06
MS Area [2]: 1.9e+07 (2×) and 6.9e+06
MS Area [3]: 1.21e+06 and 726000 and 442000
MS Area [4]: 1.62e+06 and 1.32e+06
MS Area [5]: 473000 and 399000
MS Area [6]: 497000 and 295000
MS Area [7]: 1e+06 and 705000
MS Area [8]: 378000 and 312000
MS Area [9]: 766000 and 374000
MS Area [10]: 407000 and 325000
MS Area [11]: 1.59e+07 and 1.18e+07
MS Area [12]: 283000 and 298000
MS Area [13]: 459000 and 335000
MS Area [14]: 334000 and 207000
MS Area [15]: 556000 and 544000
MS Area [16]: 1.05e+06 and 554000
MS Area [17]: 335000 and 736000
MS Area [18]: 1.67e+07 and 7.24e+06
B1: GTC310-01-hlgG1 (antibody, human IgG1, kappa, V domains shown)
VH: EVQLLESGGGLVQPGGSLRLSCAASGFTFSNYAMSWVRQAPGKGLEWVSVISHGGGSTYYADSVKGRFTISRDNSKNTLYLQMNSLRAEDTAVYYCARVISNCHLGVCYYSNGMDVWGQGTLVTVSS
VL: QLVLTQPPSVSAAPGQRVSISCSGSSSNIGDNYVSWYQQVPGSAPKLLIYDNNKRPSGIPDRFSASKSGTSATLGITGLQTGDEADYYCATWDGSLSAGRVFGGGTKLTVLR
